Data on 1 substance can be found in patent US20130052733A1.

The experiment addresses mAb LGIII 147.4.1. Briefly: direct ELISA, capture by mAb LG III 147.4.1, detection with FL119. In general terms: ELISA stands for enzyme-linked immunosorbent assay.

Consider “HLA-A*1101/LMP2340-349-fused β2m (from UniProt P61769 21-119) (peptide-MHC)”, for which the concentration at which absorbance is saturated is 4 nCM.
